Measured values reported in the supplement of paper PMC9170038.
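Also: bound reporter read as fluorescence of individual clusters on recovered sequencing chips by microscopy, with normalized cluster intensities fitted with a binding model.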

What follows are sequences tested on K4 kissing-loop RNA reporter (assay: apparent KD of K4 kissing-loop reporter; higher = weaker reporter binding). Settings: Eterna round: R107; input ligand: theophylline 20 uM.
Method: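 RNA-MaP round R107: designed RNA switches with theophylline, tryptophan, arginine or FMN aptamers are transcribed on-chip within common flanks. They are titrated with a labelled K4 kissing-loop RNA reporter in RNA-MaP buffer (100 mM Tris pH 7.5, 80 mM KCl, 4 mM MgCl2), without ligand or with the indicated ligand. Median apparent KD per design.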
With “CUAUCCCGCCGUGUAUGUAGUAUACGGUGCCGAGGACCGGUACGGCCGCCACUCGAUAAGCUUUGUCGGAGUGAUGUUCCGACCG [Soleesen]” the “apparent KD of K4 kissing-loop reporter” value was 263 nM.
For “UAAUUUAUGUCUUUAAUAUAAUAAUCAGAUACCAGUGAUUAAUGACACCCUUGGCAGCUGUAUAGAGUGAUGUUCUUAUGCUUAA [JR_ExcTheophyA_Sub010]”, the “apparent KD of K4 kissing-loop reporter” value was 364 nM.
With “GGAGGGAUCUCGGCCGCCACUCAUAAGAAAUGAACCUAAGAAAUAUAGUGAUGUUAUAUAAAGAAGAGGACCGGGAGAAAGGAGG [ExTryptoB.A]” the “apparent KD of K4 kissing-loop reporter” value was 555 nM.
“GGGAGUAGUGCGGCCGCCACUGUGAAAGAAGAAGAAUAUAGUGAUGUUAUAUAGGAAUUAAAGAAUAGGACCGGGCAUUAGAUUU [SSTRyptB.Q]” was tested, and the “apparent KD of K4 kissing-loop reporter” value was 311 nM.
With “AACUCUCAGACACCUGAGUGAUGUUCAGGCCGAGGACCGGUACGGCCGCCACUCGGGUCUGAGAGAGGUUAUCAAAGAUAGCCAA [Omei KL Tryp A SS A v3]” the “apparent KD of K4 kissing-loop reporter” value was 304 nM.
“UGCAGUGAUGUUGCUAUUUUUCUUGAUUAACGAGGACCGGUACGGCCGCCACUCGAUUUCUCUCUAAUCCAGUAUGUUGUUUAGU [JR_ExcTryptoA_Sub001]” was tested, and the “apparent KD of K4 kissing-loop reporter” value was 140 nM.
With “UGAUAGGAGAGAAGGAGCGGGAGUGAUGUUCCCAAAGAUUGGUCUAGCAAAGCUGGACCCUCCCAGGUAGGUCGCUCUCCUAUCU [KL-XARG-B16]” the “apparent KD of K4 kissing-loop reporter” value was 405 nM.
In the case of “CGAGUGAUGUUCGAAGAGUUGUUAAGCGAUACCAGCUAGGAAACUGGCCCUUGGCAGCGUAAUAAGUUAAUAAAUAAAUGAUCAC [whbob_Ex_Theo_A_th64]”, the “apparent KD of K4 kissing-loop reporter” value is reported as 449 nM.
For “GAUGAUCGCGCGGCCGCCACUGGUCAGUGAUGUUGACAUUAAGGCGCCGAGUAGUAACGGCGCCACAGGACCGGGCGCGAUGUAG [First Shot]”, the “apparent KD of K4 kissing-loop reporter” value was 126 nM.
For “UGCUUUAUCAGAAGGAGCGCGUUGGUCAUAAUAAUAAUCAGUGAUGUUGAUAUAUGAGGAUUGCAGGUAGGUCGCUGAUAUAGCU [KL-XARG-B1]”, the “apparent KD of K4 kissing-loop reporter” value was 255 nM.
“GUGUGUGUCGGAGGAUAUGCGGUGGGUGUGGGCGGAUUAGUGAUGUUGGUUGUGGUGGUGGUGGGUGUAGAAGGUUGGUGUGUGU [RHig 3/7 C]” was tested, and the “apparent KD of K4 kissing-loop reporter” value was 400 nM.

Same assay, conditions: Eterna round: R107; input ligand: tryptophan 2.4 mM
“CCCAAGGGCGAACCGGUAUGAUCGACGGAUACCAGAGGCGAAAGCCUCCCUUGGCAGCCGGCUGUAGUGAUGUUACACUGGUUCU” was tested, and the “apparent KD of K4 kissing-loop reporter” value was 143 nM.
With “AACUCUCAGACAUUUGAGUGAUGUUCAGGCCGAGGACCGGUACGGCCGCCACUCGGGUCUGAGAGAGGUUAUCAAAGAUAGCCAA [Omei KL Tryp A SS A v6]” the “apparent KD of K4 kissing-loop reporter” value was 385 nM.
“AGAGUUAAUUAGUCUUUUUUAACAUUAAGUCAGGAUAUCGUAUAUUCGAGAAGGGACACAUGCUAGUGAUGUUAGCUAUUUCUCA [JR_ExcFMNA_Sub018]” was tested, and the “apparent KD of K4 kissing-loop reporter” value was 47.2 nM.
In the case of “UGGACCAGGAGUGAUGUUCCAAAAUGUGAUACCAGCCACGAAAGUGGCCCUUGGCAGCACUGCCAGGACGAAAACGUCCGGUCCU [#SwitchBubble 11 #StaticStem #K4Early]”, the “apparent KD of K4 kissing-loop reporter” value is reported as 154 nM.
With “GGUCGGAGUGAUGUUCCGAGCUUCAGUCAUCGAGGACCGGUACGGCCGCCACUCGUCUACUAUGACGUAUCACCCUCCACGUGUU [theeternabot_sameState_KL_Trp_A_33]” the “apparent KD of K4 kissing-loop reporter” value was 125 nM.
In the case of “AAAAUAAACCAGUGAUGUUGGUGUCCAGAUACCAGCGAUAAUAAUCGCCCUUGGCAGCUGCGGACGUACAAAAUAAGUACGUCCU [MatMod 11 - Jieux - Same State - Theophylline A]”, the “apparent KD of K4 kissing-loop reporter” value is reported as 408 nM.
“UAAUAUACGAGUGAUGUUCGUUAUUUAUCAGAGGAUAUGCUUAAAUGCAGAAGGCUGUUUUUCUAAUUGAUAUUAAAUUUUUUUA [JR_Nu_ExcFMNA_Sub028]” was tested, and the “apparent KD of K4 kissing-loop reporter” value was 63.3 nM.
With “AUGCGGUGGAGGCUACCGCUAUUCUGAGAAGGAGCGCAGAUGACUGCAGGUAGGUCGCUUAGAGCUUGCAGUGAUGUUGCAAGUU [Islatimaed]” the “apparent KD of K4 kissing-loop reporter” value was 204 nM.
For “GCUAUGGUAGGAAGGAGCGCUUAAUUACUAAUAAGAGUGAUGUUCGAUAGUAGGUAUUUAUAGCAGGUAGGUCGCCUACUAUAGC [KL-Arg B23]”, the “apparent KD of K4 kissing-loop reporter” value was 174 nM.
For “CACUCGGUAUCAGAUACCAGACUAACGAUACCGAGUGUAUCGGGUAGUGAUGUUACCAUAGUCCCUUGGCAGCUGAUAUACCAUA [Theo B SS t9]”, the “apparent KD of K4 kissing-loop reporter” value was 223 nM.
In the case of “UAAUCCUAGUGAUAAUAAUCAAGUGGUGGACGAGGACCGGUACGGCCGCCACUCGAAAAUGCAGUGAUGUUGUAAUCCGGAUAAU [Exclusion - Tryptophan A (Freestyle 4)]”, the “apparent KD of K4 kissing-loop reporter” value is reported as 581 nM.
“ACGUCAUCAAAAGGAUAUGCAUCGAAGUGAUGUUUCGUCAUAUCAGUCUGAUUGCAGCAAUUAGGAGCAGAAGGUUUAGUCCGGU [theeternabot_exclusion_KL_FMN_B_11]” was tested, and the “apparent KD of K4 kissing-loop reporter” value was 83.1 nM.
In the case of “ACCGCAUUGGGAUGAUCCCAAUGCGCUGGUCGAGGACCGGUACGGCCGCCACUCGUCCAGUGAUGUUGGACUAGGGCAACUGAAG [Bileesma]”, the “apparent KD of K4 kissing-loop reporter” value is reported as 109 nM.
With “UGAUUUAACUGAAGGAGCGGCAAUUGAUAAGUAAAUAUAGUGAUGUUAUAUAAGAUAGAGAGCCAGGUAGGUCGCAGAGGUAGGA [ExArgB.K]” the “apparent KD of K4 kissing-loop reporter” value was 127 nM.
In the case of “AAGUGAUGUUGUAGUGAUGUUGUGAUGUUGCAGGAUAUAUAGUGAUGUAGAAGGGUAUGUACUUAUUUUUUUUUUGAGUUUUGUU [xgghzrmullin]”, the “apparent KD of K4 kissing-loop reporter” value is reported as 68.3 nM.
“AUAUUAAGCGGAAGGAGCGGCUGAACCAGUGAUGUUGGUUAAUCCAAGUGAUGUUGGAAAAGCCAGGUAGGUCGCCGCUAUAUAU [Same State Arg B GF 1]” was tested, and the “apparent KD of K4 kissing-loop reporter” value was 640 nM.
